The assay has as its target T1, peptide DQ, ApCPEB PLD residues 121-140 with an N-terminal dansyl moiety (Aplysia californica, dansyl moiety (D*) on the N-terminus).
T1 construct: source: synthetic peptide, bought: GenScript
T1 peptide: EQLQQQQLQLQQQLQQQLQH
In words: FRET or BRET + other: 1D 1H NMR; 20-mer peptides at 5 °C in 10 mM KH2PO4; excitation of Trp at 280 nm, dansyl emission at 530-550 nm; 1D 1H NMR with DSS as concentration standard. Conditions: both partners purified. (In general: BRET reads energy transfer from a luciferase to a nearby fluorophore.)

B1: peptide QW, ApCPEB PLD residues 121-140 with a C-terminal Trp (peptide)
peptide: EQLQQQQLQLQQQLQQQLQHW
notes: Trp added at the C-terminus (excited at 280 nm as the fluorescence donor); Wild-type stretch with one added Trp as a fluorescence probe; source: synthetic peptide, bought: GenScript
For the molecule B1, the binding result is recorded as “binds”.

B2: peptide WQ, ApCPEB PLD residues 121-140 with an N-terminal Trp (peptide)
peptide: WEQLQQQQLQLQQQLQQQLQH
notes: Trp added at the N-terminus (excited at 280 nm as the fluorescence donor); Wild-type stretch with one added Trp as a fluorescence probe; source: synthetic peptide, bought: GenScript
For B2, the binding result is recorded as “binds”.
